Measurements reported in PMC10470007 (The Journal of Biological Chemistry, 2023).

Biological target: T1, 1N3R Tau protein isoform with a V5 insertion between E73 and A74 (V5 epitope tag (simian virus 5 P/V …, strain, labeled with Alexa Fluor 488 NHS (succinimidyl) ester, 2:1 NHS Alexa:Tau-V5))
T1 construct: also called Tau-V5; labeled Tau-V5
Assay: flow cytometry on cells
Conditions: one partner purified

B1: NbV5-AGAP2-Halo-myc (VHH)
VHH: EVQLQASGGGFVQPGGSLRLSCAASGTTSFGDTMGWFRQAPGKEREFVSAISRQGDKHYYADSVKGRFTISRDNSKNTVYLQMNSLRAEDTATYYCAEWMNTRREFITPYWGQGTQVTVSS
notes: also called NbV5 (yeast surface display)
With B1 the Kd was 29 nM.
